Results on two substances are retold here after patent US20210285024.

For data set [1], the system named is polymerized microtubules (MT).
Data set [2] has as its system recombinant alpha tubulin produced in bacteria.
For data set [3], the system named is tubulin dimers (TD).
Data set [4] deals with 8 amino acid peptide GEEEGEEY (last C-ter alpha-tubulin 1A/1B).
The subject of data set [5] is bacterially produced recombinant human tubulin alpha-1A chain.
Data set [6] relates to recombinant engineered tyrosinated telokin containing the C-terminal sequence of alpha tubulin.
Chain of recombinant engineered tyrosinated telokin containing the C-terminal sequence of alpha tubulin (chain, as listed by the source, change not shown): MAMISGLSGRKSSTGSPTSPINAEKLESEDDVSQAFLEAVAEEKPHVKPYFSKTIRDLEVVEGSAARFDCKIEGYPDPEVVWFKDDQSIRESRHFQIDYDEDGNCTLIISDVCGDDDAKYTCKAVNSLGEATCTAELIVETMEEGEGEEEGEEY
Data set [7] has as its system tubulin purified from Spodoptera Frugiperda Sf9 cells (fully tyrosinated; used as purified tubulin or polymerised microtubules).

Chain of recombinant human Vasohibin-1 (VASH1) (chain, as listed by the source): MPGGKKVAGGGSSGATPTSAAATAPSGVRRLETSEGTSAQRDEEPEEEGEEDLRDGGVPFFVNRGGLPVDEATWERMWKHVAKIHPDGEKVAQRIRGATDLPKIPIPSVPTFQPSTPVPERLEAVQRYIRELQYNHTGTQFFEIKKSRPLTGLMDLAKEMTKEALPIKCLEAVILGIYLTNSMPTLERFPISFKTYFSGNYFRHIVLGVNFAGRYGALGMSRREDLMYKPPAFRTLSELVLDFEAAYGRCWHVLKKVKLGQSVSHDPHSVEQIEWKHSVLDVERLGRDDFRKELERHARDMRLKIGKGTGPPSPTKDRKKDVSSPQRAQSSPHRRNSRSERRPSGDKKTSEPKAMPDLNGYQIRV
Chain of recombinant human Vasohibin-2 (VASH2) (chain, as listed by the source): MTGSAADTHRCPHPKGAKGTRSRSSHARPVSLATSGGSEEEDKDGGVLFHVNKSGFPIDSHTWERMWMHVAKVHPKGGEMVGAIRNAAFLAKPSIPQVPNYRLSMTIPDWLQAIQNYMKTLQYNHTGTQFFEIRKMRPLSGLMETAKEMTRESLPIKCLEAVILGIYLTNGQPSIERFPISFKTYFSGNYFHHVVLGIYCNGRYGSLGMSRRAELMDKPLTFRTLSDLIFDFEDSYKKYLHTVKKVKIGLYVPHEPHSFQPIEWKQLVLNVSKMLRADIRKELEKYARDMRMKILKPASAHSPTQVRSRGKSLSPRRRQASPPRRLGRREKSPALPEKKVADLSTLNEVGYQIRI

Regarding recombinant human Vasohibin-1 (VASH1), the detyrosination result is “VASH1 was much less effective on microtubules and tubulin dimers” in data set [1]; “almost inactive on recombinant alpha tubulin produced in bacteria” in data set [2]; “VASH1 was much less effective on microtubules and tubulin dimers” in data set [3].
With recombinant human Vasohibin-2 (VASH2), the “detyrosination of the peptide (dot blot)” value in data set [4] is “Recombinant human VASH2 and catalytically dead (VASH2D) produced in bacteria detyrosinates a 8 amino acid peptide consisting of GEEEGEEY”. For the same substance, in data set [5], the “free tyrosine release (tyrosinase colorimetric assay, OD305)” value is “Release of tyrosine by VASH2 could be observed (Sample D-FIG. 16.)”. Besides, the detyrosination result in data set [1] is “Recombinant human VASH2 produced in bacteria detyrosinates polymerized microtubules (MT), tubulin dimers (TD) and recombinant alpha tubulin”; in data set [2], “Recombinant human VASH2 produced in bacteria detyrosinates polymerized microtubules (MT), tubulin dimers (TD) and recombinant alpha tubulin”; in data set [3] it was “Recombinant human VASH2 produced in bacteria detyrosinates polymerized microtubules (MT), tubulin dimers (TD) and recombinant alpha tubulin”. Besides, the detyrosination activity result in data set [6] is “recombinant VASH2 protein showed detyrosination activity on polymerized microtubule, tubulin dimers, recombinant alpha tubulin, engineered Telokin protein containing C-terminal sequence of alpha tubulin and on synthetic peptides”. Moreover, the “in vitro detyrosination assay (TCPase activity, immunoblot)” value in data set [7] is recorded as “VASH2 acted as an autonomous enzyme that did not require the small vasohibin binding protein as a chaperone to enzymatically be active”.
